From the supplement of paper PMC9170038

Tested on: MS2 coat protein
Test: apparent KD of MS2 coat protein; designed switch direction (-1 OFF switch, 1 ON switch): 1; higher = weaker reporter binding
How it was run: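 For each design, the apparent KD is the median over clusters of curves fitted to normalised cluster fluorescence. Clusters held RNA switches with common flanks, transcribed on Illumina chips by stalled E. coli RNA polymerase. These were titrated with SNAP-549-labelled MS2 coat protein, doubling from 0.7 or 1.5 nM to 3 µM, without input, with 200 uM small-molecule ligand, or with an oligonucleotide input.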

[1] = Eterna round: R95, input ligand: FMN 200 uM
[2] = Eterna round: R95, input ligand: microRNA oligo, concentration not stated
[3] = Eterna round: R95, input ligand: none
[4] = input ligand: microRNA oligo, concentration not stated

Sequence | apparent KD of MS2 coat protein [1] [nM] | apparent KD of MS2 coat protein [2] [nM] | apparent KD of MS2 coat protein [3] [nM] | apparent KD of MS2 coat protein (input ligand: FMN 200 uM) [nM] | apparent KD of MS2 coat protein [4] [nM] | apparent KD of MS2 coat protein (input ligand: none) [nM]
ACCCAAAGUAUAUGGGAGCAAGCUUUUUAACAUGAGGAUCACCCAUGUACUCGUCUUAUAAGCAGUCGAAAGACUGC [Sensor 100 - 4] (puzzle: Sensor for hsa-mir-208a) | 612 | 12.4 | 814 |  |  | 
ACCGCGUUUCGCGCCUACAUGAGGAUCACCCAUGUUUGUAGGCAGGAUAUCGUCCGCUCUGCGGGCGAGAAGGGCUGUUGUGGU [salish99_SSNG3_R04_028] (Eterna round: R96, puzzle: Same State NG 3) |  |  |  | 49.3 | 42.9 | 60.8
ACGCAGCUGGGUAAGGAUAUCGGUGGUAAAACAUGAGGAUCACCCAUGUCCGAAGCUCGGACCUCCGAGAAGGUGCCCGGCUGCG [Soinraesar Omei Mod 7] (puzzle: Same State 2) |  | 6.58 |  |  |  | 
ACGCAGCUGGGUGAGGAUAUCGGUGGUAAAACAUGAGGAUCACCCAUGUCCGAAGCUCGGACUUCCGAGAAGGCGCCCAACUGCA [Ercelama] (puzzle: Same State 2) | 12.9 | 55.1 | 70.9 |  |  | 
ACGCAGCUGGGUGAGGAUAUCGGUGGUACAACAUGAGGAUCACCCAUGUCCGAAGCUCGGACCUCCGAGAAGGCGCCCGGCUGCG [Soinraesar Omei Mod 2] (puzzle: Same State 2) | 17.4 | 24.8 | 57.8 |  |  | 
ACUAGAAGCGGGCAAUAACACAUGAGGAUCACCCAUGUGACACAGGAUAUAACCAGAUCAGAAAGUUAGAAGGGUGAGCCCGCA [Usatbere] (Eterna round: R96, puzzle: Same State NG 3) |  |  |  | 13.2 | 19.9 | 27.4
AGAAAUCAACGCGCACAUGAGGAUCACCCAUGUGCUCAAGCACAGGAUAUCGGCACAAGACAGGCCGAGAAGGGUGGAGCACGA [Eternabot solution 3] (Eterna round: R96, puzzle: Same State NG 3) |  |  |  | 14.7 | 19.7 | 24.1
AGAGAACAUGAGGAUCACCCAUGUGAGAGGGAUGUAGGAUAUGUAAGGAAGAAAGAAGGAACAGAAGGACAAAGAG [JR_SS!_Sub066] (puzzle: Same State 1) | 50.5 | 78.5 | 70.7 |  |  | 
AGAGCCGGCACUGAGGAUAUUCAUAAUAAAACAUGAGGAUCACCCAUGUAGGCCAGAAGGCCUUGGGAGAAGGCAGGUCGGCUCU [Mat - Same State 2 - Mod of UCT - D69] (puzzle: Same State 2) | 17.7 | 168 | 220 |  |  | 
AGAGGAGGAGCAGGAUAUUCGAAGAAGGACGUGGAAGAAGGGUUCAUGCGAUGACAUGAGGAUCACCCAUGUACCGCGCGAUGA [AK SSNG1-V2-13] (Eterna round: R96, puzzle: Same State NG 1) |  |  |  | 145 | 115 | 130
AGAGGAGGAGCAGGAUAUUCGAAGAAGGACGUGGAAGAAGGGUUCAUGCGAUGACAUGAGGAUCACCCAUGUACCGCGCGUUGA [AK SSNG1-V2-14] (Eterna round: R96, puzzle: Same State NG 1) |  |  |  | 185 | 78.6 | 156
AGAGGAGGCGCAGGAUAUACGACGGAGGACGAGGUAGAAGGGUGCAUGCGAUAACAUGAGGAUCACCCAUGUACCGCGCGACGA [AK SSNG1-V2-17.1] (Eterna round: R96, puzzle: Same State NG 1) |  |  |  | 122 | 24.9 | 45.6
AGAGGAGGCGCAGGAUAUACGACGGAGGACGUGGUAGAAGGGUGCAUGCGAAAACAUGAGGAUCACCCAUGUACCGCGCGACGA [ssng1 c] (Eterna round: R96, puzzle: Same State NG 1) |  |  |  | 816 | 30.1 | 126
AGAGUGUAUCCACAGGAUAUGCGAGCUGACACAUGAGGAUCACCCAUGUAGUCCUAAAGGGCCAAGCAGAAGGGUGGUAAAGCUC [Oneson] (puzzle: Same State 2) | 17.5 | 28.9 | 33.9 |  |  | 
AGAUCAUGACGAGGAUAUGGUACAUGAGGAUCACCCAUGUAUGUACCACGACGCGUACGUCGAAUCCAGAAGGCGUCGUGAUCA [Mat - Same State NG 2 - JL mod - D16] (Eterna round: R96, puzzle: Same State NG 2) |  |  |  | 19 | 66.1 | 99.3
AGAUCAUGACGAGGAUAUGGUACAUGAGGAUCACCCAUGUAUGUAUCAUAACGCGAAUGACGAAACCAGAAGGCGUCGUGGUCA [JL SSNG2 1.11] (Eterna round: R96, puzzle: Same State NG 2) |  |  |  | 10.2 | 14.6 | 14.9
AGAUCUCCUCUAGGAUAUCCCUAACAUGAGGAUCACCCAUGUCCGAAUUGCAGACAUAGGCCGAGGGAGAAGGAGAAACCGUCG [Eternabot solution 41] (Eterna round: R96, puzzle: Same State NG 2) |  |  |  | 742 | 576 | 856
AGAUGUUAAUCAGGAUAUGGGCACAUGAGGAUCACCCAUGUAAAUUCGAUACUAUGUGGUCACGUCUAGAAGGGAUGGCUAACA [SameState NG2 #82] (Eterna round: R96, puzzle: Same State NG 2) |  |  |  | 189 | 158 | 250
AGCCGAGACACAGGAUAUACAUGUAUACAUGAGGAUCACCCAUGUAGCAACACGUGGUAGUGAUUGUAGAAGGGUGCUCGGCGC [Omei SS(NG)2 Cv13] (Eterna round: R96, puzzle: Same State NG 2) |  |  |  | 20.4 | 32 | 36.8
AGCCGAGACUGAGGAUAUUUGUAUCUACAUGAGGAUCACCCAUGUAGCGUCACGUGGUAGUGAUCGAAGAAGGCAGCUCGGCGC [MOD3 of Omei's SS(NG)2 Cv2] (Eterna round: R96, puzzle: Same State NG 2) |  |  |  | 11.1 | 11.2 | 21.9
